Paper PMC10618690

What was measured:
[1] = biological target: histone H3 amino acids 16-35, H3K27me3 peptide (UniProt P68431); experiment: peptide or protein array
[2] = biological target: histone H3 amino acids 16-35, H3K27me2 peptide (UniProt P68431); experiment: peptide or protein array

| fold increase in binding over the corresponding unmodified peptide [1] [fold] | fold increase in binding over the corresponding unmodified peptide [2] [fold] | fold increase in binding over the unmodified peptide [1] [fold] | fold increase in binding over the unmodified peptide [2] [fold] | Substance |
| --- | --- | --- | --- | --- |
| 3 | 5 |  |  | GST-tagged PWWP1 domain of Apis mellifera DNMT3 (domain or fragment) |
|  |  | 3 | 3 | GST-tagged PWWP2 domain of Apis mellifera DNMT3 (domain or fragment) |
